Data: patent US20260022171A1 (23ANDME, published 2026)
Positions count from the first letter of the chain named.

T1: hu-CD200R1-iso4-Ref ECD (human)
T1 chain: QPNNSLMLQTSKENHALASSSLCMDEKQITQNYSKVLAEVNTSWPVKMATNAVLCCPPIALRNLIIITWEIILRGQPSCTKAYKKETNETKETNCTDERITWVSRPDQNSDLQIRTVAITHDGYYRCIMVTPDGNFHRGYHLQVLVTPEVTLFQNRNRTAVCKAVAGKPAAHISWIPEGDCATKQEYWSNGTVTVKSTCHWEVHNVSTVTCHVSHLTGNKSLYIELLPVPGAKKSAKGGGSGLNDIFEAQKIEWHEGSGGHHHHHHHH

T2: hu-CD200R1-iso4-Alt ECD (human)
T2 construct: also called isoform 4 alt
T2 chain: T1 chain with K84R, T116P, H172Q

T3: hu-CD200R1-iso1-Ref ECD (human)
T3 chain: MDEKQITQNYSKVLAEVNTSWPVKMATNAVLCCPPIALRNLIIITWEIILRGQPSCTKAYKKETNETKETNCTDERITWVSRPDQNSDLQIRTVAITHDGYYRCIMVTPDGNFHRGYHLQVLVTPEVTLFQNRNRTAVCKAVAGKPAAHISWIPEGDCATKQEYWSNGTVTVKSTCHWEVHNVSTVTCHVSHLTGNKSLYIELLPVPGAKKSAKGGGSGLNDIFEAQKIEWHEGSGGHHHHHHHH

T4: hu-CD200R1-iso1-Alt ECD (human)
T4 chain: T3 chain with K61R, T93P, H149Q

B1: h10F6.V1 (antibody, IgG1, V domains shown)
VH: EVQLQESGPGLVKPSETLSLTCTVSGFSLTNYRVSWVRQPPGKGLEWLGVMYAGGGTNYNSVFKSRLTISKDNSKNQVSLKLSSVTAADTAVYYCARERPLTGVMDNWGQGTLVTVSS
VL: DIVLTQSPDSLAVSLGERATINCRASESVDYSGNSFMHWFQQKPGQPPKLLIYRASNLESGIPDRFSGSGSRTDFTLTISSLQAEDVAVYYCHQSNWDPPTFGGGTKVEIKR
notes: differs by 3 residues in the heavy chain CDRs and 1 in the light chain CDRs; also called surrogate antibody
B2: h10F6.V4 (antibody, IgG1, V domains shown)
VH: B1 VH with R33W, V50T, Y52W, V104P, N107Y
VL: B1 VL
notes: IgG1 variant of h10F6
B3: h10F6.V3 (antibody, IgG1, V domains shown)
VH: B1 VH
VL: B1 VL with W97E
notes: IgG1 variant of h10F6
B4: h10F6.V2 (antibody, IgG1, V domains shown)
VH: B1 VH with R33W, V50T, Y52W, V104P, N107Y
VL: B1 VL with W97E
notes: IgG1 variant of h10F6
B5: cyno-CD200R1 ECD (receptor)
chain: AAQSNNSLMLQTSKENHTLASNSLCMDEKQITQNHSKVLAEVNISWPVQMARNAVLCCPPIEFRNLIVITWEIILRGQPSCTKTYRKDTNETKETNCTDERITWVSTPDQNSDLQIHPVAITHDGYYRCIMATPDGNFHRGYHLQVLVTPEVTLFESRNRTAVCKAVAGKPAAQISWIPAGDCAPTEQEYWGNGTVTVKSTCHWEGHNVSTVTCHVSHLTGNKSLYIELLPVPGAKKSAKLGGGSGLNDIFEAQKIEWHEGSGGHHHHHHHH
notes: also called cynomolgus monkey CD200R1; MfCD200R1 (recombinant)
B6: h22.1 (humanized 22.1 IgG) (antibody, V domains shown)
VH: EVQLVQSGAEVKKPGASVKVSCKASGYTFTSYVMFWVRQAPGQRLEWIGYINPYNDDTKYNEKFKGRATLTSDKSASTAYMELSSLRSEDTAVYYCAREDYYGSRFVYWGQGTLVTVSS
VL: DIQLTQSPSSLSASVGDRVTITCRASKSVSTSGYSYMHWYQQKPGKPPKLLIYLASNLESGVPSRFSGSGSGTDFTLTISSLQPEDFATYYCQHNRELLTFGGGTKVEIKR

Assays:
[1] = molecular target: T1, hu-CD200R1-iso4-Ref ECD; assay: blocking ELISA; biotin-hu-CD200R1 + antibody dilutions on coated hu-CD200-Fc
Experimental: (§1) After removing the coating solution, unspecific binding was blocked with PBS containing 1% bovine serum albumin (BSA) and incubation at room temperature for one hour. Plates were then washed five times in PBS with 0.05% TWEEN®-20 (wash buffer).

[2] = molecular target: B5; assay: Biacore, binding to MfCD200R1
[3] = molecular target: B5; assay: SPR binding affinity to recombinant MfCD200R1
[4] = molecular target: B5; assay: blocking ELISA, MfCD200R1 to immobilized MfCD200
Experimental: (§2) Binding was evaluated by incubating with HRP-streptavidin and colorimetric substrate, followed by monitoring the OD450 in each well.

[5] = molecular target: T1, hu-CD200R1-iso4-Ref ECD; assay: SPR Biacore 8K 37C; antibody on Protein A chip, CD200R1 analyte;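 note: sensorgrams corrected by subtracting reference and buffer signals, then analysed with Biacore 8K Evaluation Software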
Experimental: (§3) The sensorgram was recorded and subject to reference and buffer subtraction before evaluation by BIACORE®8K Evaluation Software (version 1.1.1.7442). Association rates (kₒ₀) and dissociation rates (koff) were calculated using a simple one-to-one Langmuir binding model.

[6] = molecular target: B5; assay: as above
Experimental: as §3

[7] = molecular target: T2, hu-CD200R1-iso4-Alt ECD; assay: as above
Experimental: as §3

[8] = molecular target: B5; assay: blocking ELISA; biotin-cyno-CD200R1 + antibody dilutions on coated cyno-CD200-Fc
[9] = molecular target: T5, cyno-CD200-Fc (cynomolgus monkey); assay: ELISA: biotinylated MfCD200R1 (0.12 ug/ml) on plate-immobilised Fc-tagged MfCD200, HRP-streptavidin, OD450
T5 construct: also called MfCD200-Fc; Fc-tagged MfCD200
T5 sequence (chain, as listed by the source limits assumed): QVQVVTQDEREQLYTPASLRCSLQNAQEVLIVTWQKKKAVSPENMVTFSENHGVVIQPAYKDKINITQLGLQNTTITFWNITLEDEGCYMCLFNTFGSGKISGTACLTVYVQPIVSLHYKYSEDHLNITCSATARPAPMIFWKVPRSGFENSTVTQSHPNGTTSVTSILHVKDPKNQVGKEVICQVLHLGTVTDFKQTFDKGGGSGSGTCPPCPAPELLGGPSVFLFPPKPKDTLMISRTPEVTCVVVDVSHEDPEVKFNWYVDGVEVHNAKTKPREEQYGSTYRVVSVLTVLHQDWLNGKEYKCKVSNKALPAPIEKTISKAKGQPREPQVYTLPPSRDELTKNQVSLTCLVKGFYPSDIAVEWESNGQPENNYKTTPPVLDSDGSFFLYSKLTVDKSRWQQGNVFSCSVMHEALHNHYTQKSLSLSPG
Experimental: as §2

[10] = molecular target: T1, hu-CD200R1-iso4-Ref ECD; assay: blocking ELISA; biotin-CD200R1 + antibody dilutions on coated hu-CD200-Fc
Experimental: as §1

[11] = molecular target: T3, hu-CD200R1-iso1-Ref ECD; assay: as above
Experimental: as §1

[12] = molecular target: T2, hu-CD200R1-iso4-Alt ECD; assay: as above
Experimental: as §1

[13] = molecular target: T4, hu-CD200R1-iso1-Alt ECD; assay: as above
Experimental: as §1

[14] = molecular target: T1, hu-CD200R1-iso4-Ref ECD; assay: SPR Biacore 8K 37C; biotin-CD200R1 captured, antibody analyte
Experimental: (§4) For kinetics measurements, 3 nM biotinylated human CD200R1. […] The sensorgram was recorded and subject to reference and buffer subtraction before evaluating by BIACORE® 8K Evaluation Software (version 1.1.1.7442).
(§5) Association rates (kₒₙ) and dissociation rates (koff) were calculated using a simple one-to-one Langmuir binding model. The equilibrium dissociation constant (KD) was calculated as the ratio of koff/kₒₙ.

[15] = molecular target: T3, hu-CD200R1-iso1-Ref ECD; assay: as above
Experimental: as §4, §5

[16] = molecular target: T2, hu-CD200R1-iso4-Alt ECD; assay: as above
Experimental: as §4, §5

[17] = molecular target: T4, hu-CD200R1-iso1-Alt ECD; assay: as above
Experimental: as §4, §5

Row | Binder | IC50 [1] [nM] | Kd [5] [nM] | koff [5] [s⁻¹] | kon [5] [M⁻¹ s⁻¹] | Kd [6] [nM] | koff [6] [s⁻¹] | kon [6] [M⁻¹ s⁻¹] | Kd [7] [nM] | koff [7] [s⁻¹] | kon [7] [M⁻¹ s⁻¹] | IC50 [8] [nM] | also measured
1 | B1 | 0.58 | 0.716 | 0.000964 | 1.35e+06 | 10.5 | 0.00457 | 436000 | 0.814 | 0.00117 | 1.44e+06 | 2.44 | Kd [2]: 2.63 nM; Kd [3]: 2.63 nM; IC50 [4]: 2.45 nM
2 | B2 | 10.9 | 8.93 | 0.00336 | 377000 | 5.87 | 0.00113 | 193000 | 9.99 | 0.00387 | 388000 | 2.15 | 
3 | B3 | 0.56 | 0.817 | 0.00153 | 1.88e+06 | 60.7 | 0.0195 | 322000 | 0.935 | 0.00191 | 2.04e+06 | 11.4 | 
4 | B4 | 4.79 | 6.04 | 0.00367 | 607000 | 16.3 | 0.00351 | 216000 | 6.68 | 0.00425 | 635000 | 4.25 | 
5 | B5 |  |  |  |  |  |  |  |  |  |  |  | binding result [9]: binds
6 | B6 |  |  |  |  |  |  |  |  |  |  |  | IC50 [10]: 5.32 nM; IC50 [11]: 5.86 nM; IC50 [12]: 4.59 nM; IC50 [13]: 7.45 nM; Kd [14]: 1.92 nM; koff [14]: 0.00115 s⁻¹; kon [14]: 598000 M⁻¹ s⁻¹; Kd [15]: 0.501 nM; koff [15]: 0.00151 s⁻¹; kon [15]: 3.02e+06 M⁻¹ s⁻¹; Kd [16]: 1.92 nM; koff [16]: 0.00116 s⁻¹; kon [16]: 604000 M⁻¹ s⁻¹; Kd [17]: 0.535 nM; koff [17]: 0.00166 s⁻¹; kon [17]: 3.11e+06 M⁻¹ s⁻¹
